Source: FireProtDB (doi:10.1073/pnas.0804396105)
Several values for one entry are separate records, joined by “and”; a condition that tells them apart may be missing. Equal values may be shown once.

B1: Adenosine receptor A2a, P29274 (parent)
chain: MPIMGSSVYITVELAIAVLAILGNVLVCWAVWLNSNLQNVTNYFVVSLAAADIAVGVLAIPFAITISTGFCAACHGCLFIACFVLVLTQSSIFSLLAIAIDRYIAIRIPLRYNGLVTGTRAKGIIAICWVLSFAIGLTPMLGWNNCGQPKEGKNHSQGCGEGQVACLFEDVVPMNYMVYFNFFACVLVPLLLMLGVYLRIFLAARRQLKQMESQPLPGERARSTLQKEVHAAKSLAIIVGLFALCWLPLHIINCFTFFCPDCSHAPLWLMYLAIVLSHTNSVVNPFIYAYRIREFRQTFRKIIRSHVLRQQEPFKAAGTSARVLAAHGSDGEQVSLRLNGHPPGVWANGSAPHPERRPNGYALGLVSGGSAQESQGNTGLPDVELLSHELKGVCPEPPGLDDPLAQDGAGVS

Variants of: B1
Conditions: Homo sapiens; pH 7.4; Thermal; Activity; Tris 50 mM; NaCl 0.4 M; structure 4UHR; whole UniProt chain shown

Variant | Tm | change of melting temperature, mutant - wild type (higher = more stable)
MPIMGSSVYITVELAIAVLAILGNVLVCWAVWLNSNLQNVTNYFVVSLAAADILVGVLAIPFAITISTGFCAACHGCLFIACFVLVLTQSSIFSLLAIAIDRYIAIRIPLRYNGLVTGTRAAGIIAICWVLSFAIGLTPMLGWNNCGQPKEGKNHSQGCGEGQVACLFEDVVPMNYMVYFNFFACVLVPLLLMLGVYLRIFLAARRQLKQMESQPLPGERARSTLQKEVHAAKSAAIIVGLFALCWLPLHIINCFTFFCPDCSHAPLWLMYLAIVLSHTNSVVNPFIYAYRIREFRQTFRKIIRSHVLRQQEPFKAAGTSARVLAAHGSDGEQVSLRLNGHPPGVWANGSAPHPERRPNGYALGLVSGGSAQESQGNTGLPDVELLSHELKGVCPEPPGLDDPLAQDGAGVS [A54L K122A L235A] | 47 °C and 48 °C | 16 °C
MPIMGSSVYITVELAIAVLAILGNVLVCWAVWLNSNLQNVTNYFVVSLAAADILVGVLAIPFAITISTGFCAACHGCLFIACFVLVLTQSSIFSLLAIAIDRYIAIRIPLRYNGLVTGTRAKGIIAICWVLSFAIGLTPMLGWNNCGQPKEGKNHSQGCGEGQVACLFEDVVPMNYMVYFNFFACVLVPLLLMLGVYLRIFLALRRQLKQMESQPLPGERARSTLQKEVHAAKSLAIIVGLFALCWLPLHIINCFTFFCPDCSHAPLWLMYLAIVLSHTNSVVNPFIYAYRIREFRQTFRKIIRSHVLRQQEPFKAAGTSARVLAAHGSDGEQVSLRLNGHPPGVWANGSAPHPERRPNGYALGLVSGGSAQESQGNTGLPDVELLSHELKGVCPEPPGLDDPLAQDGAGVS [A54L A204L] | 33 °C | 2 °C
MPIMGSSVYITVELAIAVLAILGNVLVCWAVWLNSNLQNVTNYFVVSLAAADILVGVLAIPFAITISTGFCAACHGCLFIACFVLVLTQSSIFSLLAIAIDRYIAIRIPLRYNGLVTGTRAAGIIAICWVLSFAIGLTPMLGWNNCGQPKEGKNHSQGCGEGQVACLFEDVVPMNYMVYFNFFACVLVPLLLMLGVYLRIFLAARRQLKQMESQPLPGERARSTLQKEVHAAKSLAIIVGLFALCWLPLHIINCFTFFCPDCSHAPLWLMYLAIVLSHTNSVVNPFIYAYRIREFRQTFRKIIRSHVLRQQEPFKAAGTSARVLAAHGSDGEQVSLRLNGHPPGVWANGSAPHPERRPNGYALGLVSGGSAQESQGNTGLPDVELLSHELKGVCPEPPGLDDPLAQDGAGVS [A54L K122A] | 35 °C and 40 °C | 4 °C and 8 °C
MPIMGSSVYITVELAIAVLAILGNVLVCWAVWLNSNLQNVTNYFVVSLAAADILVGVLAIPFAITISTGFCAACHGCLFIACFVLVLAQSSIFSLLAIAIDRYIAIRIPLRYNGLVTGTRAKGIIAICWVLSFAIGLTPMLGWNNCGQPKEGKNHSQGCGEGQVACLFEDVVPMNYMVYFNFFACVLVPLLLMLGVYLRIFLAARRQLKQMESQPLPGERARSTLQKEVHAAKSLAIIAGLFALCWLPLHIINCFTFFCPDCSHAPLWLMYLAIVLSHTNSVVNPFIYAYRIREFRQTFRKIIRSHVLRQQEPFKAAGTSARVLAAHGSDGEQVSLRLNGHPPGVWANGSAPHPERRPNGYALGLVSGGSAQESQGNTGLPDVELLSHELKGVCPEPPGLDDPLAQDGAGVS [A54L T88A V239A] | 46 °C | 14 °C
MPIMGSSVYITVELAIAVLAILGNVLVCWAVWLNSNLQNVTNYFVVSLAAADILVGVLAIPFAITISTGFCAACHGCLFIACFVLVLTQSSIFSLLAIAIDRYIAIRIPLRYNGLVTGTRAKGIIAICWVLSFAIGLTPMLGWNNCGQPKEGKNHSQGCGEGQVACLFEDVVPMNYMVYFNFFACVLVPLLLMLGVYLRIFLAARRQLKQMESQPLPGERARSTLQKEVHAAKSAAIIVGLFALCWLPLHIINCFTFFCPDCSHAPLWLMYLAIVLSHTNSVVNPFIYAYRIREFRQTFRKIIRSHVLRQQEPFKAAGTSARVLAAHGSDGEQVSLRLNGHPPGVWANGSAPHPERRPNGYALGLVSGGSAQESQGNTGLPDVELLSHELKGVCPEPPGLDDPLAQDGAGVS [A54L L235A] | 42 °C and 45 °C | 11 °C and 13 °C
MPIMGSSVYITVELAIAVLAILGNVLVCWAVWLNSNLQNVTNYFVVSLAAADILVGVLAIPFAITISTGFCAACAGCLFIACFVLVLTQSSIFSLLAIAIDRYIAIRIPLRYNGLVTGTRAKGIIAICWVLSFAIGLTPMLGWNNCGQPKEGKNHSQGCGEGQVACLFEDVVPMNYMVYFNFFACVLVPLLLMLGVYLRIFLAARRQLKQMESQPLPGERARSTLQKEVHAAKSLAIIAGLFALCWLPLHIINCFTFFCPDCSHAPLWLMYLAIVLSHTNSVVNPFIYAYRIREFRQTFRKIIRSHVLRQQEPFKAAGTSARVLAAHGSDGEQVSLRLNGHPPGVWANGSAPHPERRPNGYALGLVSGGSAQESQGNTGLPDVELLSHELKGVCPEPPGLDDPLAQDGAGVS [A54L H75A V239A] | 37 °C | 6 °C
MPIMGSSVYITVELAIAVLAILGNVLVCWAVWLNSNLQNVTNYFVVSLAAADILVGVLAIPFAITISTGFCAACAGCLFIACFVLVLAQSSIFSLLAIAIDRYIAIRIPLRYNGLVTGTRAKGIIAICWVLSFAIGLTPMLGWNNCGQPKEGKNHSQGCGEGQVACLFEDVVPMNYMVYFNFFACVLVPLLLMLGVYLRIFLAARRQLKQMESQPLPGERARSTLQKEVHAAKSLAIIAGLFALCWLPLHIINCFTFFCPDCSHAPLWLMYLAIVLSHTNSVVNPFIYAYRIREFRQTFRKIIRSHVLRQQEPFKAAGTSARVLAAHGSDGEQVSLRLNGHPPGVWANGSAPHPERRPNGYALGLVSGGSAQESQGNTGLPDVELLSHELKGVCPEPPGLDDPLAQDGAGVS [A54L H75A T88A V239A] | 40 °C and 44 °C | 9 °C and 12 °C
MPIMGSSVYITVELAIAVLAILGNVLVCWAVWLNSNLQNVTNYFVVSLAAADILVGVLAIPFAITISTGFCAACHGCLFIACFVLVLAQSSIFSLLAIAIDRYIAIRIPLRYNGLVTGTRAKGIIAICWVLSFAIGLTPMLGWNNCGQPKEGKNHSQGCGEGQVACLFEDVVPMNYMVYFNFFACVLVPLLLMLGVYLRIFLAARRQLKQMESQPLPGERARSTLQKEVHAAKSLAIIVGLFALCWLPLHIINCFTFFCPDCSHAPLWLMYLAIVLSHTNSVVNPFIYAYRIREFRQTFRKIIRSHVLRQQEPFKAAGTSARVLAAHGSDGEQVSLRLNGHPPGVWANGSAPHPERRPNGYALGLVSGGSAQESQGNTGLPDVELLSHELKGVCPEPPGLDDPLAQDGAGVS [A54L T88A] | 39 °C | 8 °C
